In article PMC8159800:

Key:
[1] = biological target: C-C chemokine receptor type 5 (CCR5) with a C-terminal 1D4 epitope tag (human) (UniProt P51681)
[2] = biological target: C-C chemokine receptor type 5 (CCR5) with a C-terminal 1D4 epitope tag (human) (UniProt P51681); remark: listed apart in the source

UniProt P51681, sequence (P51681 whole entry): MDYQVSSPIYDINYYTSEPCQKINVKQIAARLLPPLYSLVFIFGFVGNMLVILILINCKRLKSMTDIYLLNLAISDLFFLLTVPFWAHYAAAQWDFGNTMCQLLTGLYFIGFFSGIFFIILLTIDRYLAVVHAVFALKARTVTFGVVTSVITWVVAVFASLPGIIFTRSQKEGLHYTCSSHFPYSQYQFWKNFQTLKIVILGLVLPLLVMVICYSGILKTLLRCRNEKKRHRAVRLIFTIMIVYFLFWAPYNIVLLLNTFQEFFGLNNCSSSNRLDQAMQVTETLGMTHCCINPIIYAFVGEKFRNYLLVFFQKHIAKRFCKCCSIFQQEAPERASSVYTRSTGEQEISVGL
PSC-RANTES, sequence (P13501 24-91): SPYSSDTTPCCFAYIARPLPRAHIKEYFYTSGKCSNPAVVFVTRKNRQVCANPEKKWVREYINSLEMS

Substance	increase in intracellular Ca2+ (FLIPR Calcium 6 dye, mean RFU) of CCR5-transfected HEK293T cells on injection of 100 nM PSC-RANTES; no ATP pre-stimulation, no inhibitor [1]	increase in intracellular Ca2+ (FLIPR Calcium 6 dye, mean RFU) of CCR5-transfected HEK293T cells on injection of 100 nM RANTES; buffer pre-injection, no inhibitor [2]
PSC-RANTES (from UniProt P13501 24-91) (ligand)	9900 RFU	
regulated on activation, normal T cell expressed and secreted (RANTES) (from UniProt P13501 24-91) (ligand)		3830 RFU
